# Paper PMC5737872
# Read-outs that look alike come from different tables or passages of the source.
# T1: Nrd1 290-468 wt (Saccharomyces cerevisiae, UniProt P53617 290-468)
# T1 sequence: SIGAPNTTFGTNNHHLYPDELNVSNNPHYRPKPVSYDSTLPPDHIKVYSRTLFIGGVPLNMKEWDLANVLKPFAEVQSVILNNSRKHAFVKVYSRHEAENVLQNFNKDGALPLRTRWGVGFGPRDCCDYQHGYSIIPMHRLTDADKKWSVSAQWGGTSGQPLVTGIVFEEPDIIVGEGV
# Tests used:
# Test in all cases: X-ray crystallography
# [1] = target: T1, Nrd1 290-468 wt
# [2] = target: T1, Nrd1 290-468 wt; remark: listed apart in the source
# [3] = target: T1, Nrd1 290-468 wt; remark: listed apart in the source
binder,measurement,setting,value
CGUAAA (ssRNA),binding result,[1],binds
UUAGUAAUCC (ssRNA),binding result,[2],binds
GUAA (ssRNA),binding result,[3],binds
